Reference: patent US6835382B2, “Ii peptide therapeutics to enhance antigen presentation” (University of Massachusetts, priority 1996, dated 2004)
Non-standard residues stand in square brackets, D forms with d.

Assays:
HLA-DR1 molecules = assay: release of biotin-labeled hMBP(90-102) from HLA-DR1 in the presence of unlabeled hMBP (assay II); assay type: binding, human; conditions: for Relative Release, With unlabeled hMBP(90-102), 1 μM / Relative Release, With unlabeled hMBP(90-102), 64 μM: Table 37, unlabeled hMBP(90-102) 250 μM; for Relative Release, With unlabeled hMBP(90-102), 1 μM: AE101 series compound 1 μM; for Relative Release, With unlabeled hMBP(90-102), 64 μM: AE101 series compound 64 μM
[1] = target: T1, murine A^k MHC class II allele (Mus musculus, UniProt P01910+P06343); assay: simultaneous assay, A^k allele (CH27 APC, 3A9 T hybridoma, HEL46-61); assay type: cell-based; conditions: Table 2; for Times Baseline Response, A^k: AE peptide 64 μM, 0.05 μM HEL46-61, supernatant 1:2; for activity in simultaneous assay in the A^k system, in words: 64 μM
T1 construct: The A20 and CH27 B cell lymphoma lines express H-2^d and H-2^k alleles, respectively; endogenous in cells; host or cells: CH27 B cell lymphoma (mitomycin C-treated)
Protocol: (§1) In the “simultaneous assay” the four components of the assay are cultured together for a 24 h period. The components of this primary culture, added at the same time or simultaneously, are: (a) the antigenic peptide, (b) mitomycin C-treated, MHC class II-positive antigen presenting cells (APC) with the MHC class II allele required for binding of the specific antigenic peptide and its presentation to the antigenic peptide-specific T cell hybridoma, (c) an AE101 series effector peptide, and (d) MHC class II allele-restricted T cell hybridoma specific for the antigenic peptide and the MHC class II allele restricting its presentation. At the end of the incubation of this primary culture, an aliquot of its supernatant is transferred into a second culture well for incubation with an interleukin-dependent lymphoblastoid cell line. The degree of stimulation of that second, indicator cell by the interleukins which had been released from the activated T cell hybridoma in the primary culture is measured by quantitating tritiated thymidine deoxyribose {[^3H]TdR} uptake into the DNA of the HT-2 indicator cells of that second culture.
(§2) For these various assays, the following antigenic peptides were used: HEL11-25, hen egg lysozyme 11-25, AMKRHGLDNYRGYSL(A^d) (SEQ ID NO:5); HEL46-61, hen egg lysozyme 46-61, NTDGSTDYGILQINSR(Ak) (SEQ ID NO:6); HEL106-116, hen egg lysozyme 106-116, NAWVAWRNRCK (E^d) (SEQ ID NO:7); PGCC81-104, pigeon cytochrome c 81-104, […] (Ek) (SEQ ID NO:8), and THMCC82-103, tobacco hornworm moth cytochrome c 82-103, […] (Ek) (SEQ ID NO:9). AE101 series peptides were obtained from commercial sources. In general, the purity and composition of each peptide was confirmed by HPLC separation and mass spectrometry. The native protein antigens were HEL, hen egg lysozyme, and PGCC, pigeon cytochrome C. They were obtained from commercial sources.
(§3) For the experiments of these Examples, several T cell hybridomas, which are specific for certain antigenic peptides, were used. The TPc9.1 T hybridoma is specific for pigeon cytochrome C 81-104 peptide presented on the murine class II MHC allele E^k. The TPc9.1 hybridoma responds heteroclitically to tobacco hornworm moth cytochrome c 82-103 on E^k. The 3A9 T hybridoma is specific for hen egg lysozyme 46-61 on A^k. The 9.30.B2 hybridoma is specific for hen egg lysozyme 11-25 on A^d, and the G28.C9 hybridoma is specific for hen egg lysozyme 106-116 on E^d. The A20 and CH27 B cell lymphoma lines express H-2^d and H-2^k alleles, respectively.
(§4) Antigenic peptide-specific T cell activation was measured by the following procedure. Mitomycin C-treated A20 cells (A^dE^d) or CH27 cells APC (A^kE^k) were generated by incubating 5×10^6 cells/mL for 20 min at 37° C. with 0.025 mg/mL of mitomycin C (Sigma) in Dulbecco's Modified Eaglel's Medium (DMEM)/10 mM N-2(hydroxyethylpiperazine-N″[2-ethanesulfonic acid] (HEPES), followed by two washes with four volumes of DMEM-5% fetal calf serum (FCS), 10 mM HEPES. Fixed APC were generated by treating 1×10^6 cells/mL for 5 min with 0.5% paraformaldehyde in PBS (pH 7.2), followed by two washes with four volumes of DMEM-10% FCS, 10 mM HEPES. T cell hybridomas were irradiated 2200 rads before each assay.
(§5) For the “simultaneous assay”, 5×10^4 mitomycin C-treated APC, 5×10^4 T hybridoma cells and a submaximal concentration of antigenic peptide were cultured with and without serial 4-fold dilutions of each AE101 series peptide, usually at 64 μM, 16 μM, 4 μM, and 1 μM, at pH 7.2-7.4, in complete DMEM-5% FCS, 10 mM HEPES, 1×nonessential amino acids (Sigma), 1 mM sodium pyruvate, 2 mM L-glutamine, 100 U/mL penicillin G, 100 μg/mL streptomycin sulfate, 5×10^−5 M 2-mercaptoethanol (2-ME). Wells containing only T hybridoma cells (T)+APC were included to monitor for background T cell activation; and wells containing T+APC+AE101 series peptide were included to monitor for non-specific T hybridoma activation by each AE101 series peptide. […]

[2] = target: T2, murine A^d MHC class II allele (Mus musculus, UniProt P01921+P04228); assay: simultaneous assay, A^d allele (A20 APC, 9.30.B2 T hybridoma, HEL11-25); assay type: cell-based; conditions: Table 2; for Times Baseline Response, A^d: AE peptide 64 μM, 0.05 μM HEL11-25, supernatant 1:2
T2 construct: The A20 and CH27 B cell lymphoma lines express H-2^d and H-2^k alleles, respectively; endogenous in cells; host or cells: A20 B cell lymphoma (mitomycin C-treated)
T2 sequence (P04228 24-256): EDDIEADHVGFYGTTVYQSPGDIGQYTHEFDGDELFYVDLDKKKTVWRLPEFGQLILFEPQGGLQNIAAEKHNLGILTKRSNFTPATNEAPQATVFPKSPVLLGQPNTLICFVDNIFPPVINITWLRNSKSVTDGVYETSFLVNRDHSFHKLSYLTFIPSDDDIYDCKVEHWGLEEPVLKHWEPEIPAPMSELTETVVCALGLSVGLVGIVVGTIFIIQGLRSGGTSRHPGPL
T2 sequence (P01921 28-265): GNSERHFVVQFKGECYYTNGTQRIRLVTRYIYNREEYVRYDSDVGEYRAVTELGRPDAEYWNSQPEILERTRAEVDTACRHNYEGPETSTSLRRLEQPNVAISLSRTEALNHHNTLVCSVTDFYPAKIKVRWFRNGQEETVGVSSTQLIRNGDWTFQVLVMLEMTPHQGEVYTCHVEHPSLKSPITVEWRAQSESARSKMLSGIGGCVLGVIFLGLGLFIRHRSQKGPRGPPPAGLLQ
Protocol: as §1, §2, §3, §4, §5

T1 sequence (P01910 24-256): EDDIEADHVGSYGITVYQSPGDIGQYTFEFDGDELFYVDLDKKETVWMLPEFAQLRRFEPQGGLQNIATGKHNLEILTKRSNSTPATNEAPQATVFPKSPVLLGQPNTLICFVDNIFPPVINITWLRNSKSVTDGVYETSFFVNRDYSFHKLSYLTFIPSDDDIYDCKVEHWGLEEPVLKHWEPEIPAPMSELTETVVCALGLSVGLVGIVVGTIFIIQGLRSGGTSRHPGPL
T1 sequence (P06343 28-263): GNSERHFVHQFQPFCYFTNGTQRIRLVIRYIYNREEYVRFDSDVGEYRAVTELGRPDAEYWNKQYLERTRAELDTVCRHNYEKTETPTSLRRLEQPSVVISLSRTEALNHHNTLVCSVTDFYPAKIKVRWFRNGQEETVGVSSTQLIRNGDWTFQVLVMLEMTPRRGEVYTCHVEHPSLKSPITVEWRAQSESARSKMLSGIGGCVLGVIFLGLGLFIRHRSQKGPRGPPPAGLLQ

Row | Substance | Times Baseline Response, A^k [1] | Times Baseline Response, A^d [2] | activity in simultaneous assay in the A^k system, in words [1] | other results
1 | Ac-LRMK Y PK-NH2 (Ac-LRMKYPK-NH2; not fully specified; printed as Ac-LRMK Y PK-NH2) [AE235] | – | – | – | Relative Release, With unlabeled hMBP(90-102), 1 μM (HLA-DR1 molecules): 0.48; Relative Release, With unlabeled hMBP(90-102), 64 μM (HLA-DR1 molecules): 0.6
2 | Ac-YRMKL hydrP KSAK-NH2 (Ac-YRMKL[hydrP]KSAK-NH2) [AE143] | – | – | – | Relative Release, With unlabeled hMBP(90-102), 1 μM (HLA-DR1 molecules): 0.35; Relative Release, With unlabeled hMBP(90-102), 64 μM (HLA-DR1 molecules): 0.21
3 | Ac-LDSLRMKLPKSAK-NH2 [AE153] | 1.0 | 1.2 | – | –
4 | Ac-DSLRMKLPKSAK-NH2 [AE154] | 1.0 | 1.1 | – | –
5 | Ac-LRMKLPKSAK-NH2 [AE110] | 0.8 | 0.7 | inactive | activity in simultaneous assay in the A^d system, in words ([2]; 64 μM): not active
6 | Ac-LQLDSLRMKLPKSAK-NH2 [AE151] | 0.5 | 1.1 | inhibitory | –
7 | Ac-YRMKLPKSAK-NH2 [AE109] | 1.2 | 0.9 | – | –
8 | Ac-LR L KLPK-NH2 (Ac-LRLKLPK-NH2; not fully specified; printed as Ac-LR L KLPK-NH2) [AE206] | – | – | – | Relative Release, With unlabeled hMBP(90-102), 1 μM (HLA-DR1 molecules): 0.03; Relative Release, With unlabeled hMBP(90-102), 64 μM (HLA-DR1 molecules): −0.29
9 | Ac-SLRMKLPKSAK-NH2 [AE155] | 1.0 | 0.8 | – | –
10 | Ac-NLQLDSLRMKLPKSAK-NH2 [AE150] | 0.0 | 1.0 | inhibitory | –
11 | Ac-LRMKLPK-NH2 [AE114] | – | – | – | release of antigenic peptide from HLA-DR1 in presence of second antigenic peptide, in words (HLA-DR1 molecules; excess second antigenic peptide): can catalyze the release of antigenic peptide from the antigenic peptide binding site only in the presence of excess quantities of a second antigenic peptide
12 | Ac-QLDSLRMKLPKSAK-NH2 [AE152] | 0.5 | 0.9 | inhibitory | –
